In the supplement of paper PMC10126150:
± gives the standard deviation of the averaged measurements.

Tested on: ATP
Test: switch fluorescence ratio, 500 uM ATP over buffer (Cy3 cluster intensity, sum of 5 cycles each) (fold (ratio)); higher = stronger signal-on switching upon ATP binding; sequences stand for … in TCGTCGGCAGCGTCAGATGTGTATAAGAGACAGTTTTTTTTTTTTTTTTTTTTTTTTT…TC
Conditions: aptamer strand: ATP DNA aptamer (quencher-CACCTGGGGGAGTATTGCGGAGGAAGG + anchor), 100 nM annealed; ATP concentration: 500 uM
Method in brief: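 The fluorescence ratio divides summed target-cycle Cy3 intensity by summed buffer-cycle Cy3 intensity for each cluster and is averaged per switch-domain sequence. Cy3-labelled switching-strand clusters on a modified Illumina MiSeq flow-cell were annealed to 100 nM quencher-labelled ATP aptamer, then imaged in selection buffer and again after 15 min with 500 uM ATP at 22 °C. Five such cycles were run, with NaOH stripping and re-annealing between them, and clusters outside 100-1000 RFU were excluded.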
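Also: ATP exposure 15 min at 22 °C before imaging.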

Sequence | switch fluorescence ratio
ACTGGGGTTT | 0.982 ± 0.024
ACTGGGTACC | 1.05 ± 0.012
ACTGGGTCGA | 1.04 ± 0.034
ACTGGGTTTG | 1.001 ± 0.0043
ACTGGTAAGG | 1.009 ± 0.0053
ACTGGTATGG | 1.01 ± 0.025
ACTGGTCAGC | 1 ± 0.029
ACTGGTCGCC | 0.992 ± 0.015
ACTGGTGGCA | 1.04 ± 0.028
ACTGGTTGGG | 0.966 ± 0.018
ACTGTAGTCT | 1.06 ± 0.012
ACTGTGTGTT | 1.01 ± 0.025
ACTGTTAGGC | 1.01 ± 0.056
ACTGTTATTT | 1.0389 ± 0.00024
ACTGTTTGTC | 0.9897 ± 0.0061
ACTGTTTTCT | 1.05 ± 0.02
ACTGTTTTGC | 0.999 ± 0.019
ACTGTTTTTC | 1 ± 0.013
ACTTAAAAGG | 1.0122 ± 0.00061
ACTTAAGTAG | 0.987 ± 0.04
ACTTACGGGC | 1.513 ± 0.0058
ACTTATCAGG | 1.04 ± 0.045
ACTTATGTGG | 0.974 ± 0.018
ACTTATTAAA | 1.03 ± 0.034
ACTTATTCGG | 1.02 ± 0.019

Sequence | switch fluorescence ratio
ACTTCCGGG | 1.33 ± 0.27
ACTTCGTTCT | 1.03 ± 0.034
ACTTCTAGCG | 1.02 ± 0.072
ACTTGACCCG | 1.08 ± 0.064
ACTTGAGGGA | 0.9743 ± 0.0071
ACTTGAGGGG | 1.03 ± 0.043
ACTTGAGGTC | 0.991 ± 0.028
ACTTGCGGCT | 1 ± 0.05
ACTTGCGTCG | 0.981 ± 0.023
ACTTGGAGGG | 1.01 ± 0.011
ACTTGGCGTC | 1.02 ± 0.06
ACTTGGGGGT | 1.02 ± 0.016
ACTTGGTCCA | 0.987 ± 0.016
ACTTGTAATT | 0.997 ± 0.026
ACTTGTGACA | 1.12 ± 0.18
ACTTGTGTAA | 1.018 ± 0.0021
ACTTGTTTGC | 1.03 ± 0.035
ACTTTAGGGG | 1.06 ± 0.044
ACTTTATGTT | 1.041 ± 0.0015
ACTTTATTGG | 1.03 ± 0.024
ACTTTCACGG | 1.32 ± 0.044
ACTTTGGCGG | 0.981 ± 0.044
ACTTTGTCAT | 0.981 ± 0.017
ACTTTGTTCT | 1 ± 0.027
ACTTTTGTTT | 1.02 ± 0.015

Sequence | switch fluorescence ratio
AGAAAAAACA | 0.986 ± 0.02
AGAAAAAACG | 1.05 ± 0.092
AGAAAAAAGG | 1.23 ± 0.42
AGAAAAAAGT | 1.03 ± 0.12
AGAAAAAGGC | 1.02 ± 0.065
AGAAAAAGGG | 1.01 ± 0.037
AGAAAAATTT | 1.19 ± 0.29
AGAAAAGCTC | 1.02 ± 0.033
AGAAAAGGGA | 0.995 ± 0.017
AGAAAGAGGT | 1.011 ± 0.0096
AGAAAGTTGA | 1.024 ± 0.01
AGAAATCCTT | 0.976 ± 0.036
AGAAATCTTG | 0.983 ± 0.021
AGAACCACCG | 1.12 ± 0.032
AGAAGAATTG | 1.04 ± 0.048
AGAAGAGGTG | 1.07 ± 0.029
AGAAGAGTGT | 1.03 ± 0.038
AGAAGCGCGG | 0.975 ± 0.044
AGAAGGGTT | 1.016 ± 0.0044
AGAAGTGGGG | 0.989 ± 0.039
AGAAGTTTTA | 1.01 ± 0.075
AGAATAGTCA | 1 ± 0.037
AGAATCGAAG | 0.994 ± 0.0041
AGAATGGGGG | 1.02 ± 0.022
AGAATGGTGA | 0.96 ± 0.061

Sequence | switch fluorescence ratio
AGAATGTACG | 1.015 ± 0.0078
AGAATGTGG | 1.21 ± 0.28
AGAATTAGGC | 0.999 ± 0.021
AGAATTAGTG | 0.953 ± 0.1
AGACAAGGGT | 1.01 ± 0.018
AGACAGTAGG | 1.03 ± 0.03
AGACATCCTT | 1.04 ± 0.014
AGACGAGGAA | 1.03 ± 0.058
AGACGCCAAG | 1.01 ± 0.029
AGACGCGTAG | 0.999 ± 0.046
AGACGCTTG | 0.9961 ± 0.0042
AGACGGAGGG | 1.015 ± 0.0017
AGACGGATGC | 1.05 ± 0.019
AGACGGCGTG | 0.9799 ± 0.0066
AGACGGCTTG | 1.01 ± 0.025
AGACGGGAAC | 1 ± 0.022
AGACGGGGGG | 1 ± 0.039
AGACGGGTGG | 0.9763 ± 0.0052
AGACGTGTGT | 1.023 ± 0.0088
AGACTAGTTT | 1.02 ± 0.015
AGACTATGTG | 0.991 ± 0.024
AGACTCACTG | 1.09 ± 0.011
AGACTGATGA | 1.01 ± 0.014
AGACTGTGGC | 0.991 ± 0.0061
AGACTTCCGG | 0.969 ± 0.048

Sequence | switch fluorescence ratio
AGACTTTTAT | 0.976 ± 0.031
AGAGACGCTT | 1.03 ± 0.027
AGAGAGACGG | 0.997 ± 0.026
AGAGAGGTTT | 0.986 ± 0.039
AGAGATCCGG | 0.981 ± 0.018
AGAGATGGGG | 0.996 ± 0.022
AGAGCACTTG | 1.025 ± 0.0032
AGAGCAGGGA | 0.97 ± 0.064
AGAGCGGGGT | 0.998 ± 0.0091
AGAGCTCTTT | 1 ± 0.029
AGAGGACCGA | 1.04 ± 0.05
AGAGGCGCGT | 0.946 ± 0.036
AGAGGCGTAT | 0.974 ± 0.011
AGAGGCTTAC | 1.04 ± 0.051
AGAGGCTTGG | 0.997 ± 0.014
AGAGGGCCGG | 1.03 ± 0.072
AGAGGGCGGA | 1 ± 0.02
AGAGGGCTTG | 0.997 ± 0.018
AGAGGGGAT | 1 ± 0.021
AGAGGGGGCC | 0.98 ± 0.18
AGAGGGGGGA | 1.02 ± 0.041
AGAGGGGGGC | 1.04 ± 0.1
AGAGGGGTCG | 1.02 ± 0.058
AGAGGGTGAC | 1.01 ± 0.016
AGAGGTGGGG | 0.968 ± 0.012

Sequence | switch fluorescence ratio
AGAGGTTGG | 0.996 ± 0.026
AGAGTAACGG | 0.995 ± 0.015
AGAGTATTTT | 0.999 ± 0.028
AGAGTCAGTG | 0.982 ± 0.022
AGAGTGATGC | 1 ± 0.087
AGAGTGCTTC | 0.999 ± 0.028
AGAGTGGCAA | 1.04 ± 0.016
AGAGTGTGGG | 1.02 ± 0.033
AGAGTTAACG | 0.97158 ± 0.00066
AGAGTTAATG | 0.968 ± 0.011
AGAGTTCCTG | 1.01 ± 0.028
AGAGTTGGGA | 1.01 ± 0.018
AGAGTTTCGA | 1.01 ± 0.034
AGAGTTTGGT | 0.9847 ± 0.0013
AGATAACCCA | 1 ± 0.052
AGATAAGTTT | 1.01 ± 0.034
AGATAATGGC | 1.11 ± 0.19
AGATAGAGTT | 0.997 ± 0.021
AGATAGCAGT | 1.019 ± 0.0016
AGATAGGGGG | 1 ± 0.034
AGATAGGTTG | 0.974 ± 0.038
AGATAGTTGG | 0.99 ± 0.038
AGATATGGTT | 0.994 ± 0.048
AGATATTCCG | 0.987 ± 0.02
AGATATTTGG | 0.994 ± 0.018

Sequence | switch fluorescence ratio
AGATCCGGGT | 0.992 ± 0.025
AGATCGAACT | 0.994 ± 0.019
AGATCGACGC | 1.19 ± 0.026
AGATCGTGAA | 1 ± 0.0032
AGATCTATAC | 1.018 ± 0.0096
AGATCTTGTA | 0.991 ± 0.065
AGATGAAGTG | 0.99 ± 0.019
AGATGAGAGA | 1 ± 0.016
AGATGAGAGT | 1 ± 0.018
AGATGAGGAC | 0.922 ± 0.049
AGATGGAATT | 0.994 ± 0.048
AGATGGATAA | 0.99 ± 0.015
AGATGGCATG | 0.987 ± 0.019
AGATGGCTGG | 1.02 ± 0.012
AGATGTAGGC | 1.03 ± 0.038
AGATGTGGGT | 0.972 ± 0.02
AGATGTTCCG | 1.05 ± 0.018
AGATGTTGGG | 0.992 ± 0.07
AGATTACGAG | 1.02 ± 0.026
AGATTATCGT | 1.007 ± 0.0088
AGATTATTGA | 0.943 ± 0.031
AGATTCTCGA | 0.998 ± 0.011
AGATTGAATT | 1.02 ± 0.062
AGATTGGGCA | 0.981 ± 0.011
AGATTGGTTC | 0.9953 ± 0.0044

Sequence | switch fluorescence ratio
AGATTGTACA | 1.02 ± 0.02
AGATTTTCGC | 1 ± 0.0091
AGATTTTGTG | 0.9922 ± 0.0038
AGCAAAGAAT | 1.02 ± 0.042
AGCAAAGTGT | 1.02 ± 0.071
AGCAACAGTT | 1.19 ± 0.28
AGCAATAGGT | 1.94 ± 0.46
AGCAATGCTT | 3.09 ± 0.29
AGCACAGGGG | 0.985 ± 0.045
AGCACATGTA | 0.998 ± 0.021
AGCACGCTTT | 1.019 ± 0.0063
AGCACGGCAG | 0.991 ± 0.021
AGCACGTATC | 1.09 ± 0.059
AGCAGAAAAT | 1.01 ± 0.025
AGCAGGACCC | 1.23 ± 0.054
AGCAGGAGCC | 1.061 ± 0.0063
AGCAGGAGGG | 1.022 ± 0.0081
AGCAGGCGAA | 1.009 ± 0.0035
AGCAGGGCTG | 0.99566 ± 0.00073
AGCAGGGGAC | 1.18 ± 0.23
AGCAGGGGGA | 1.01 ± 0.034
AGCAGGGTGG | 1.02 ± 0.038
AGCAGGTGTG | 1.18 ± 0.048
AGCAGTTGGG | 1.03 ± 0.065
AGCATAATTG | 1.01 ± 0.0076
